Article PMC10579300

Molecular target: SHP2 (UniProt P35235)
Experiment: co-immunoprecipitation, Western blot
Settings: reference: LAIR1 wild type; sites Y251,Y281

binding against the reference: weaker
Substance: LAIR1 (from UniProt Q6GTX8) LAIR1 Y251/281F
